Data taken from article PMC7835958 (2021).

Molecular target: T1, LEDGF/p75 IBD (Homo sapiens, UniProt O75475)
T1 chain: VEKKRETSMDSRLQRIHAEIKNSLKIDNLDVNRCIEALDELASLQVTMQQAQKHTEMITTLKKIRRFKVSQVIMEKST
Assay: NMR

- Kd: 64 µM
B1: MLL 123-160 (peptide)
chain: GTNLRRFRAVFGESGGGGGSGEDEQFLGFGSDEEVRVR
